Measured values published in the supplement of paper PMC10567573.
± gives the standard deviation.

Assay: protein stability index of a GFP-peptide fusion (GPS, HEK-293T) (PSI 1-6); higher = more stable
[1] = treatment: DMSO, c terminus: a fixed tail appended
[2] = treatment: MLN4924 1 uM, 8 h, c terminus: a fixed tail appended
[3] = treatment: DMSO, c terminus: native
[4] = treatment: MLN4924 1 uM, 8 h, c terminus: native
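Note: 24-mer peptide tiles fused after GFP, lentivirally expressed, FACS-sorted into six equal bins by GFP/DsRed ratio, decoded by Illumina sequencing, PSI is the read-weighted mean bin number.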

| Sequence | protein stability index [1] | protein stability index [2] | protein stability index [3] | protein stability index [4] |
| --- | --- | --- | --- | --- |
| STSEDSLVKQECIKEVVEKREACH [FAN1] | 5.52 ± 0.22 | 5.23 ± 0.092 |  |  |
| ALDKQHSRDSAAITHSTYSLPASS [NOL4L] | 4.57 ± 0.065 | 4.5 ± 0.065 |  |  |
| MTQLSSTLARCAKDILGFAVMFFI [PKD2L1] | 2.39 ± 0.37 | 2.28 ± 0.42 |  |  |
| HRLKLRLAIQEMVSLTSPSAPPTS [PPFIA4] | 2.5 ± 0.43 | 2.46 ± 0.24 |  |  |
| EIRMWQTREKAKFSDGEKCRREAF [PHTF1] | 2.98 ± 0.14 | 3.1 ± 0.31 |  |  |
| VSGSPVTQNHAASALPTGSPKRGT [FBF1] | 5.27 ± 0.16 | 5.22 ± 0.25 |  |  |
| IFYFVIQRKKWVDLAWMITFYVRF [FADS1] | 2.6 ± 0.72 | 2.93 ± 0.94 |  |  |
| ITGLPLDNPSVLSGPMQAALQAAA [SMG5] | 3.08 ± 0.2 | 3.11 ± 0.082 |  |  |
| VPIDIFSEEIRFYQLGEEAMEKFR [KCNA3] | 3.14 ± 0.28 | 3.23 ± 0.18 |  |  |
| MDDQGCPRCKTTKYRNPSLKLMVN [MNAT1] | 2.8 ± 0.16 | 3.21 ± 0.22 |  |  |
| YGKDIVKACSLLDVAVHMPCLGHT [ZBED1] | 2.14 ± 0.3 | 2.29 ± 0.33 |  |  |
| ISVTAYQNPQITQLKIAANPFAKG [TBX6] | 2.33 ± 0.22 | 2.36 ± 0.16 |  |  |
| RFEEGGRRKCGQYWPLEKDSRIRF [PTPN9] | 3.04 ± 0.36 | 2.88 ± 0.33 |  |  |
| LENVFSSLTDDKYDVAMNRAKDLV [GOLPH3L] | 3.89 ± 0.32 | 3.92 ± 0.19 |  |  |
| LRSAGVEQLMYIKEDLIIPHHHSF [FAM50A] | 2.38 ± 0.35 | 2.37 ± 0.25 |  |  |
| IGEEVRQLMEKLREKQLSHSLRAV [BEX1] | 2.68 ± 0.14 | 2.82 ± 0.22 |  |  |
| YMIHEPEPHILLFRRPLPKKPKK [CKS1B] |  |  | 2.55 ± 0.23 | 2.99 ± 0.5 |
| LSLGALVALCWQLGLLFERHWHRP [SCNN1D] | 3.09 ± 0.24 | 3.16 ± 0.19 |  |  |
| FADEKNILHIMVKVVKGHRPELPP [RIPK4] | 2.3 ± 0.32 | 2.36 ± 0.36 |  |  |
| SGSAGQYGSDQQHHLGSGSGAGGT [MYOZ1] | 4.98 ± 0.21 | 5.12 ± 0.29 |  |  |
| TVAMSTLNFCGPNVINHFYCDLPQ [OR3A1] | 2.39 ± 0.47 | 2.22 ± 0.17 |  |  |
| KSGPGDGFFSSAFQARLSGNNLHN [POMT2] | 3.04 ± 0.096 | 2.95 ± 0.41 |  |  |
| ATFSGFKKEQRRLGIPKNPWLWSE [ETS2] | 2.28 ± 0.18 | 2.57 ± 0.52 |  |  |

| Sequence | protein stability index [1] | protein stability index [2] | protein stability index [3] | protein stability index [4] |
| --- | --- | --- | --- | --- |
| YGPLKPLPQTPHLEEDLKEVLRSE [MYBL2] | 5 ± 0.19 | 4.95 ± 0.24 |  |  |
| HLVPVIEMWADQLTSLKDLYKSLK [CEP70] | 2.47 ± 0.5 | 2.32 ± 0.39 |  |  |
| PSLGPALSTGPRGLCAMPQTGDAF [VENTX] | 3.64 ± 0.089 | 3.6 ± 0.17 |  |  |
| TIDAVPNAIPGRTDIELEIYGMEG [ZNF207] | 3.86 ± 0.27 | 4 ± 0.093 |  |  |
| SPVRCGGPGDASPRGCGARRAGEG [WEE1] | 4.54 ± 0.19 | 4.68 ± 0.095 |  |  |
| VDDHTPWVKGSVPPPLDQYVKFDA [CLPTM1] | 3.99 ± 0.15 | 3.74 ± 0.24 |  |  |
| KDGNTPLHVAARYGHELLINTLIT [ANKRD44] | 2.19 ± 0.15 | 2.3 ± 0.46 |  |  |
| VFIDFSVYNANINLFCVLRLVVEF [PKD2L1] | 3.51 ± 0.61 | 2.7 ± 0.4 |  |  |
| ENTIAGANHTHTFYGHSHHSHHGH [C10orf62] | 3.58 ± 0.25 | 3.78 ± 0.23 |  |  |
| CKKLHIPLKAQNDLDISRIKRGNT [P2RY14] | 3.44 ± 0.33 | 3.65 ± 0.14 |  |  |
| GQLYAMELQGFWMDIGQPKDFLTG [GMPPB] | 2.01 ± 0.47 | 1.92 ± 0.13 |  |  |
| PSTYGGGLSVSSRFSSGGACGLGG [KRT16] | 3.21 ± 0.21 | 3.44 ± 0.2 |  |  |
| LESELLRGTQYSSLDSLDGLSLTD [PSD2] | 4.53 ± 0.22 | 4.73 ± 0.21 |  |  |
| LQVIYWARDVFIITGVWVFFFNPC [GOSR1] | 2.37 ± 0.7 | 2.57 ± 0.15 |  |  |
| CLDTIDKSTMDAISAEGFTDIDID [BTBD1] | 4.88 ± 0.19 | 4.82 ± 0.22 |  |  |
| TSPYSDPVVSMDLDPQPITDEEEG [PTPRD] | 5.63 ± 0.19 | 5.61 ± 0.095 |  |  |
| EARICRLLKHPNIVRLHDSISEEG [CAMK2D] | 3.56 ± 0.47 | 3.34 ± 0.28 |  |  |
| DGSGMPKTMQSEETRVWHRRDGKW [CAMK2D] | 4.49 ± 0.35 | 4.59 ± 0.095 |  |  |
| EELLYDYGDRSKASIEAHPWLKH [KMT5A] |  |  | 4.9 ± 0.39 | 4.83 ± 0.28 |
| FEKSRYETYIHLLAMKIKVGSDDL [PSD2] | 2.53 ± 1 | 2.55 ± 0.61 |  |  |
| RHAEQQALRLEVRAGPDSAGIALY [CARM1] | 2.54 ± 0.43 | 2.81 ± 0.7 |  |  |
| ASALTLVLGGRRLRRAWFSWPRAS [SCNN1D] | 2.13 ± 0.39 | 2.05 ± 0.28 |  |  |
| TVEPRLLVADLLYWKDTRTSGVVF [RTN2] | 2.97 ± 0.61 | 2.98 ± 0.6 |  |  |

| Sequence | protein stability index [1] | protein stability index [2] | protein stability index [3] | protein stability index [4] |
| --- | --- | --- | --- | --- |
| EIEQLLARLTGVNDKMAEYTNSAG [GOSR1] | 2.29 ± 0.24 | 2.46 ± 0.45 |  |  |
| GRRYEAVKWMVVFAIGVCTGLVGL [CLCN6] | 3.33 ± 0.1 | 3.2 ± 0.092 |  |  |
| SSELTDSLRTLKPEGNILRDRFKS [NOP53] | 4.42 ± 0.22 | 4.49 ± 0.14 |  |  |
| LGCFSDTEPWGGTAIRPLKILPWS [PNLIPRP1] | 2.1 ± 0.28 | 2.43 ± 0.57 |  |  |
| KASNPDLKLWEIGKIIGGMWRDLT [SMARCE1] | 3.42 ± 1.9 | 2.55 ± 0.64 |  |  |
| LHVNPKKQTIGNSCKACGYRGMLD [EIF5] | 2.35 ± 0.29 | 2.44 ± 0.64 |  |  |
| DVMLVECYDPKGDQWNILQTPILE [KLHL14] | 2.55 ± 0.36 | 2.64 ± 0.38 |  |  |
| VAASPAPAGERRIYRHRIPSTICF [ZNF511] | 2.51 ± 0.18 | 2.48 ± 0.21 |  |  |
| AADGPTVCCNPYHFSRLCGPESPP [SMAD6] | 3.65 ± 0.11 | 3.76 ± 0.24 |  |  |
| TIEYLKRHNALLSKRLLALTSSDL [TMEM192] | 2.38 ± 0.42 | 2.17 ± 0.21 |  |  |
| GGPQALVNIMRTYTYEKLLWTTSR [CTNNB1] | 2.43 ± 0.6 | 2.5 ± 0.27 |  |  |
| ILESSQTLLSVLKREAGNLTKATA [SSNA1] | 2.69 ± 0.46 | 2.99 ± 0.29 |  |  |
| QNCKKKLGKLPPQYALELLTVYAW [OAS1] | 2.6 ± 0.58 | 2.25 ± 0.64 |  |  |
| NRTLWRLDLAGNNIPGDVLRAVEQ [LRRC45] | 3.01 ± 0.6 | 3.51 ± 0.43 |  |  |
| QGEICLCTSRIFVQKSIYSEFLKR [ALDH8A1] | 2.29 ± 0.64 | 2.06 ± 0.49 |  |  |
| KILLTKSENARLVLQIDNAKLAAD [KRT36] | 2.99 ± 0.15 | 3.08 ± 0.51 |  |  |
| LRAVEQAMGHSQDRLTTFQENQAR [LRRC45] | 4.48 ± 0.23 | 4.34 ± 0.22 |  |  |
| IVDPTTGKRYCRGKVLGKGGFAKC [PLK2] | 2.63 ± 0.38 | 2.92 ± 0.16 |  |  |
| ADILAGREDNSGSDVLIGDILVLL [SLC35F2] | 2.48 ± 0.26 | 2.43 ± 0.18 |  |  |
| SFTTNEKAILEQNFRDLVRDLEKQ [TRIM29] | 3.97 ± 0.19 | 4.19 ± 0.2 |  |  |
| YTVKDKATGEVLGQFYLDLYPREG [NLN] | 3.1 ± 0.69 | 2.8 ± 0.77 |  |  |
| RVFLFQAPSKEEMLSWILRINLVA [PSD2] | 2.64 ± 0.54 | 2.7 ± 0.46 |  |  |
| RSNTLRERSQVRGSAPPRATPGGG [PCDHGC5] | 4.68 ± 0.17 | 4.47 ± 0.28 |  |  |

| Sequence | protein stability index [1] | protein stability index [2] | protein stability index [3] | protein stability index [4] |
| --- | --- | --- | --- | --- |
| GAYDFPSPEWDTVTPEAKDLINKM [CAMK2D] | 4.536 ± 0.038 | 4.07 ± 0.093 |  |  |
| QLNGILLHLESELAQTRAEGQRQA [KRT18] | 2.93 ± 0.26 | 2.86 ± 0.16 |  |  |
| KEMARKVIEHCSNFKEENMDTSR [ZER1] |  |  | 3.77 ± 0.32 | 4.16 ± 0.61 |
| GAEPGTYLTGTINGDPESVASLHW [ADAMTS4] | 4.52 ± 0.87 | 3.67 ± 0.62 |  |  |
| NTQTEELNQQVVSSSEQLQCCQTE [KRT36] | 5.49 ± 0.28 | 5.51 ± 0.081 |  |  |
| VIMWDIGGRKGTAIELQGHNDRVQ [WDFY2] | 2.57 ± 0.64 | 2.45 ± 0.17 |  |  |
| VKEWFGLGGEQAEEKAFESVIEPV [MIA2] | 4.23 ± 0.23 | 4.04 ± 0.15 |  |  |
| ALIICYNWLHRRLAGQFLEELRKF [MOG] | 2.64 ± 0.65 | 2.47 ± 0.57 |  |  |
| TLALILQIPTQNTQARQVMEREFN [PPFIA4] | 2.32 ± 0.34 | 2.39 ± 0.26 |  |  |
| EVLSKALSQRTITVGVYEAAKLLN [GADD45A] | 2.77 ± 0.45 | 2.56 ± 0.53 |  |  |
| EVSQHIKMRMGGRVDFEEFVELIG [CABP4] | 2.44 ± 0.12 | 3 ± 0.44 |  |  |
| YTKLPSSLQSTGKCLLYCNGVLEP [SLC25A39] | 2.64 ± 0.62 | 2.23 ± 0.35 |  |  |
| MPRHNYHKVAPLVQSLCAKHGIEY [FADS1] | 2.64 ± 0.36 | 2.5 ± 0.36 |  |  |
| KKNHEEEMKEFSSQLAGQVNVEMD [KRT15] | 5.6 ± 0.12 | 5.59 ± 0.23 |  |  |
| EQQRIIAILLDAHHKTYDPTYSDF [VDR] | 2.48 ± 0.37 | 2.27 ± 0.15 |  |  |
| VNPAYPESRYTSDYFISYGIEHAQ [ETS1] | 2.8 ± 0.51 | 2.8 ± 0.4 |  |  |
| SQKYKEGKYIIELNHMIKDNGWD [YPEL3] |  |  | 2.94 ± 0.28 | 2.97 ± 0.15 |
| VKTSVPSSKSSGDLVDLFDGTSQS [CLINT1] | 4.71 ± 0.24 | 4.8 ± 0.18 |  |  |
| QEELPALLKALVSELSEHLRDPLT [FCHSD1] | 2.13 ± 0.31 | 2.25 ± 0.071 |  |  |
| LAEYQDLTFLTKQEILLAHRRFCE [CIB1] | 2.3 ± 0.1 | 2.54 ± 0.38 |  |  |
